Experimental data from patent publication US20040086521A1, “Method for the identification of antigenic peptides” (priority 2002, published 2004).

Key:
[1] = molecular target: DRB5*0101 (Homo sapiens, UniProt P01903+Q30154); assay: MHC peptide binding studies with synthetic peptide; conditions: MHC peptide binding study
[2] = molecular target: DRB1*0401 (Homo sapiens, UniProt P01903+P01911, A100K/A169T/F76Y/I96L/K127E/L162R/M171V/N62H/P40V/Q125Y/R42H/S133A/S149N/S66Y/V115G/V209L/W38E); assay: MHC peptide binding studies with synthetic peptide; conditions: MHC peptide binding study
[3] = molecular target: DRB1*0101 (Homo sapiens, UniProt P01903+P01911, A100R/D57E/F55L/F60I/F76Y/I96L/L162R/M171V/P40L/Q125E/R42F/V115G/Y59C); assay: MHC peptide binding studies with synthetic peptide; conditions: MHC peptide binding study
[4] = molecular target: HLA-DR allele DRB1*0101 (human); assay: MHC peptide binding study with synthetic peptide
[5] = molecular target: HLA-DR allele DRB1*0401 (human); assay: MHC peptide binding study with synthetic peptide
[6] = molecular target: HLA-DR allele DRB5*0101 (human); assay: MHC peptide binding study with synthetic peptide

Molecule	binding capacity to allele DRB5*0101 [1]	binding capacity to allele DRB1*0401 [2]	binding capacity to allele DRB1*0101 [3]	binding result [4]	binding result [5]	binding result [6]
KPGKTKTIVYQRGILLPQ	confirmed the binding capacity	revealed the same	confirmed the binding capacity	–	–	–
KPGKTKTIVYQRGILLPQ	–	–	–	binds	binds	binds
